Residue numbers refer to the chain shown, from its start. In names and notes the source's numbering stands.
B1: Full length human lamin A W514R (natural protein, UniProt P02545 1-664, looked up)
chain: METPSQRRATRSGAQASSTPLSPTRITRLQEKEDLQELNDRLAVYIDRVRSLETENAGLRLRITESEEVVSREVSGIKAAYEAELGDARKTLDSVAKERARLQLELSKVREEFKELKARNTKKEGDLIAAQARLKDLEALLNSKEAALSTALSEKRTLEGELHDLRGQVAKLEAALGEAKKQLQDEMLRRVDAENRLQTMKEELDFQKNIYSEELRETKRRHETRLVEIDNGKQREFESRLADALQELRAQHEDQVEQYKKELEKTYSAKLDNARQSAERNSNLVGAAHEELQQSRIRIDSLSAQLSQLQKQLAAKEAKLRDLEDSLARERDTSRRLLAEKEREMAEMRARMQQQLDEYQELLDIKLALDMEIHAYRKLLEGEEERLRLSPSPTSQRSRGRASSHSSQTQGGGSVTKKRKLESTESRSSFSQHARTSGRVAVEEVDEEGKFVRLRNKSNEDQSMGNWQIKRQNGDDPLLTYRFPPKFTLKAGQVVTIWAAGAGATHSPPTDLVRKAQNTWGCGNSLRTALINSTGEEVAMRKLVRSVTVVEDDEDEDGDDLLHHHHGSHCSSSGDPAEYNLRSRTVLCGTCGQPADKASASGSGAQVGGPISSGSSASSVTVTRSYRSVGGSGGGSFGDNLVTRSYLLGNSSPRTQSPQNCSIM
B2: Full length human lamin A protein/pre-lamin A (664 amino acids), wild type (natural protein, UniProt P02545 1-664, looked up)
chain: B1 chain with R514W

How the values were obtained:
[1] = target: the molecule itself; assay: far-UV circular dichroism
[2] = target: the molecule itself; assay: scanning electron microscopy of in vitro assembled purified protein

Protein | binding result [1] | binding result [2]
B1 | binds | –
B2 | – | binds
